What all share (conditions): both partners purified
In assay [1] the target is P. reichenowi var71 CIDRα1.4 (Plasmodium reichenowi). Briefly: BLI; Octet Qke; CIDR domains on recombinant human EPCR, protocol as reported previously (ref. 40); 1:1 fit. A general note: Biolayer interferometry detects binding as a change in optical thickness at a sensor tip.
Assay [2] has as its target T1, P. reichenowi CDO62090.1 CIDRα1.4 (Plasmodium reichenowi, UniProt A0A060RMQ3 1-4072).
T1 construct: CIDRα1.4 domain of the P. reichenowi erythrocyte membrane protein 1 (PrEMP1) of entry CDO62090.1; Construct His6-MBP-TEV-CIDR-StrepII; also called Pr CDO62090.1 CIDRα1.4; source: pSHuffle expression hosts (New England Biolabs), purified (two-step process); not shown: StrepII, C-terminal, kept
The description is as above.

Assay [3] deals with T2, P. reichenowi CDO61774.1 CIDRα1.4 (Plasmodium reichenowi, UniProt A0A060RM78 1-3575).
T2 construct: CIDRα1.4 domain of the P. reichenowi erythrocyte membrane protein 1 (PrEMP1) of entry CDO61774.1; Construct His6-MBP-TEV-CIDR-StrepII; also called P. reichenowi CD061774.1 CIDRα1.4; Pr CDO61774.1 CIDRα1.4; source: pSHuffle expression hosts (New England Biolabs), purified (two-step process); not shown: StrepII, C-terminal, kept
The description is as above.

For assay [4], the target named is T3, recombinant human endothelial protein C receptor (human, UniProt Q9UNN8 18-238).
T3 construct: endothelial protein C receptor, human, recombinant; also called EPCR; human EPCR
T3 sequence (looked up): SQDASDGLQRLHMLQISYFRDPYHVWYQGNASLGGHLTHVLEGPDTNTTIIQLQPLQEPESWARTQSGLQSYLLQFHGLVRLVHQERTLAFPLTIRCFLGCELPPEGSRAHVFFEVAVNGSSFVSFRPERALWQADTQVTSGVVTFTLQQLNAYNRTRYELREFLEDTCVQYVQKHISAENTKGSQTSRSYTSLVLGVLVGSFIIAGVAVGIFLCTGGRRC
Kind of assay: BLI; Octet Qke; EPCR on the biosensor, CIDR domain in solution; protocol as reported previously (ref. 40); double-reference subtracted data fitted to a 1:1 binding model.

B1: recombinant human EPCR (receptor)
chain: SQDASDGLQRLHMLQISYFRDPYHVWYQGNASLGGHLTHVLEGPDTNTTIIQLQPLQEPESWARTQSGLQSYLLQFHGLVRLVHQERTLAFPLTIRCFLGCELPPEGSRAHVFFEVAVNGSSFVSFRPERALWQADTQVTSGVVTFTLQQLNAYNRTRYELREFLEDTCVQYVQKHISAENTKGSQTSRSYTS
Take B1: the Kd in assay [1] came to 23 nM.

B2: recombinant human EPCR (receptor)
chain: B1 chain
modifications: construct limits not given; taken as the soluble extracellular domain after the signal peptide, from the candidate's features
Regarding B2, the Kd in assay [2] was 60 nM; in assay [3] it was 6 nM.

B3: P. reichenowi CDO61774.1 CIDRα1.4 (domain or fragment)
chain: TEIKVIVSGNEQGDISKKLEDFCSDENNENGKNYQKWECYYKSSQNNKCKMETKSGTSITEEKVTSFDAFFDLWVKNLLRDSIKWETELKDCINNSNVTDCNNDCNKNCVCFDKWVKQKEEVWKNMKTVLGNQKENLDNYYNKLNGLFKGFFFPVMFELNHDEAKWNKLMENLKKKIESSKENRGTVNSQDAIELLLEYLKEKSTICKDNNTN
For B3, in assay [4], the Kd worked out at 6.2 nM, the koff stood at 0.000293 s⁻¹ and the kon was 47300 M⁻¹ s⁻¹.

B4: P. reichenowi CDO62090.1 CIDRα1.4 (domain or fragment)
chain: TKINVLYSGDKQGDITQKLQNFCSDENKENGTNYQKWECYYKDEKQNKCKMDKTSGKNMTEDKIMSFDEFFYSWVTNFLIDTINWENELKNCMNNTILTDCNDGCKINCVCFDKWVKQKENEWENVKKVFENKNGISDNYYNKLKYIFEGFFFQVLYKLNQDEAKWNQLKQKLKEIIVSSKANTGKEHSQDAIKPLLEYIKEKSTICKDNNTN
With B4, in assay [4], the koff was determined as 0.000443 s⁻¹ and the kon was 7350 M⁻¹ s⁻¹.

The term Kd denotes the constant that tells how readily two partners part at equilibrium. A word on the koff: it is a measure of how fast the partners let go of each other. For orientation: kon means a measure of how fast the partners come together.

(Values after paper PMC5227068, “Pathogenicity Determinants of the Human Malaria Parasite Plasmodium falciparum Have Ancient Origins” (mSphere, 2017).)
